Reference: the RNAGym collection of RNA variant scans (doi:10.1021/acssynbio.7b00057)

B1: Pistol ribozyme (parent)
chain: GGGUCGUUGUUCCAUAAUCGCGUGGAUAUGGCACGCAAGUUUCUACCGGGCACCGUAAAUGUCCGACUGGAGCCGUUCGGGCGGCUAUAAACAGACCUCAGGCCCGAAGCGUGGCGGCACCUGCCGCCGGUGGUAAAAAAGAUCGGAAGAGCACACGUCU

Variants of: B1
Test: aptazyme ON/OFF ratio, guanine; higher = stronger switching; co-transcriptional cleavage with and without guanine

Question: Which “aptazyme ON/OFF ratio” value does the source give for U7A U8C G9A U10C U11G C12A C13U here?
Answer: 1.14

Question: Which “aptazyme ON/OFF ratio” value does the source give for U7A U8C G9C here?
Answer: 1.08

Question: Which “aptazyme ON/OFF ratio” value does the source give for U7A U8C G9C U10A U11C C12A C13G here?
Answer: 1.16

Question: Which “aptazyme ON/OFF ratio” value does the source give for U7A U8C G9C U10A U11C C12A C13A here?
Answer: 1.15

Question: Which “aptazyme ON/OFF ratio” value does the source give for U7A U8C G9C U10A U11C C12A C13U here?
Answer: 1.14

Question: Which “aptazyme ON/OFF ratio” value does the source give for U7A U8C G9A U10G U11G C12U here?
Answer: 1.39

Question: Which “aptazyme ON/OFF ratio” value does the source give for U7A U8C G9A U10G U11G C12G here?
Answer: 1.44

Question: For U7A U8C G9A U10G U11G C12A, which “aptazyme ON/OFF ratio” value is on record?
Answer: 1.11

Question: For U7A U8C G9A U11A, which “aptazyme ON/OFF ratio” value is on record?
Answer: 1.25

Question: Which “aptazyme ON/OFF ratio” value does the source give for U7A U8C G9A U11G here?
Answer: 1.28

Question: With U7A U8C G9A U11C as the variant, how does the “aptazyme ON/OFF ratio” value read?
Answer: 1.04

Question: Which “aptazyme ON/OFF ratio” value does the source give for U7A U8C G9A U10A U11G C13U here?
Answer: 1.17

Question: Which “aptazyme ON/OFF ratio” value does the source give for U7A U8C G9A U10A U11G C13A here?
Answer: 1.12

Question: For U7A U8C G9A U10A U11G C13G, which “aptazyme ON/OFF ratio” value is on record?
Answer: 1.12

Question: With U7A U8C G9C U10A U11C C12U as the variant, how does the “aptazyme ON/OFF ratio” value read?
Answer: 1.13

Question: With U7A U8C G9C U10A U11C C12A as the variant, how does the “aptazyme ON/OFF ratio” value read?
Answer: 1.1

Question: Which “aptazyme ON/OFF ratio” value does the source give for U7A U8C G9C U10A U11C C12G here?
Answer: 1.26

Question: Which “aptazyme ON/OFF ratio” value does the source give for U7A U8C G9C U10C U11A C12U C13U here?
Answer: 1.02

Question: For U7A U8C G9C U10C U11A C12U C13A, which “aptazyme ON/OFF ratio” value is on record?
Answer: 1.04

Question: Which “aptazyme ON/OFF ratio” value does the source give for U7A U8C G9C U10C U11A C12U C13G here?
Answer: 1.01

Question: With U7A U8C G9C U10A U11C C13U as the variant, how does the “aptazyme ON/OFF ratio” value read?
Answer: 1.12

Question: For U7A U8C G9C U10A U11C C13G, which “aptazyme ON/OFF ratio” value is on record?
Answer: 1.46

Question: With U7A U8C G9C U10A U11C C13A as the variant, how does the “aptazyme ON/OFF ratio” value read?
Answer: 1.41

Question: Which “aptazyme ON/OFF ratio” value does the source give for U7A U8C G9C U10C U11A C13U here?
Answer: 1.04

Question: For U7A U8C G9C U10C U11A C13A, which “aptazyme ON/OFF ratio” value is on record?
Answer: 1.07

Question: For U7A U8C G9C U10C U11A C13G, which “aptazyme ON/OFF ratio” value is on record?
Answer: 1.08

Question: For U7A U8C G9A U10G U11G C12G C13A, which “aptazyme ON/OFF ratio” value is on record?
Answer: 1.42

Question: Which “aptazyme ON/OFF ratio” value does the source give for U7A U8C G9A U10G U11G C12G C13G here?
Answer: 1.09

Question: For U7A U8C G9A U10G U11G C12G C13U, which “aptazyme ON/OFF ratio” value is on record?
Answer: 1.12

Question: With U7A U8C G9A U10A U11G as the variant, how does the “aptazyme ON/OFF ratio” value read?
Answer: 1.26

Question: Which “aptazyme ON/OFF ratio” value does the source give for U7A U8C G9C U10C U11A C12G C13A here?
Answer: 1.03

Question: For U7A U8C G9C U10C U11A C12G C13U, which “aptazyme ON/OFF ratio” value is on record?
Answer: 1.1

Question: With U7A U8C G9C U10C U11A C12G C13G as the variant, how does the “aptazyme ON/OFF ratio” value read?
Answer: 1.08

Question: For U7A U8C G9C C12A C13G, which “aptazyme ON/OFF ratio” value is on record?
Answer: 1.14

Question: With U7A U8C G9C C12A C13U as the variant, how does the “aptazyme ON/OFF ratio” value read?
Answer: 1.07

Question: Which “aptazyme ON/OFF ratio” value does the source give for U7A U8C G9C C12A C13A here?
Answer: 1.11

Question: Which “aptazyme ON/OFF ratio” value does the source give for U7A U8C G9C U10C C12G here?
Answer: 1.03

Question: For U7A U8C G9C U10C C12U, which “aptazyme ON/OFF ratio” value is on record?
Answer: 1.04

Question: Which “aptazyme ON/OFF ratio” value does the source give for U7A U8C G9C U10C C12A here?
Answer: 1.03

Question: Which “aptazyme ON/OFF ratio” value does the source give for U7A U8C G9C U10C U11C C12A C13A here?
Answer: 0.998

Question: With U7A U8C G9C U10C U11C C12A C13G as the variant, how does the “aptazyme ON/OFF ratio” value read?
Answer: 1.03

Question: For U7A U8C G9C U10C U11C C12A C13U, which “aptazyme ON/OFF ratio” value is on record?
Answer: 0.998

Question: For U7A U8C G9C U10C U11C C12U, which “aptazyme ON/OFF ratio” value is on record?
Answer: 0.94

Question: With U7A U8C G9C U10C U11C C12A as the variant, how does the “aptazyme ON/OFF ratio” value read?
Answer: 1.05

Question: For U7A U8C G9C U10C U11C C12G, which “aptazyme ON/OFF ratio” value is on record?
Answer: 1.03

Question: For U7A U8C G9A U10G U11G C12U C13U, which “aptazyme ON/OFF ratio” value is on record?
Answer: 1.07

Question: Which “aptazyme ON/OFF ratio” value does the source give for U7A U8C G9A U10G U11G C12U C13G here?
Answer: 1.33

Question: Which “aptazyme ON/OFF ratio” value does the source give for U7A U8C G9A U10G U11G C12U C13A here?
Answer: 1.29

Question: For U7A U8C G9A U10G U11C C13G, which “aptazyme ON/OFF ratio” value is on record?
Answer: 1.06

Question: With U7A U8C G9A U10G U11C C13U as the variant, how does the “aptazyme ON/OFF ratio” value read?
Answer: 1.05

Question: Which “aptazyme ON/OFF ratio” value does the source give for U7A U8C G9A U10G U11C C13A here?
Answer: 1.06

Question: Which “aptazyme ON/OFF ratio” value does the source give for U7A U8C G9A U10G U11A C12U C13U here?
Answer: 1.11

Question: With U7A U8C G9A U10G U11A C12U C13G as the variant, how does the “aptazyme ON/OFF ratio” value read?
Answer: 1.14

Question: With U7A U8C G9A U10G U11A C12U C13A as the variant, how does the “aptazyme ON/OFF ratio” value read?
Answer: 1.19

Question: For U7A U8C G9C U10A U11G C13G, which “aptazyme ON/OFF ratio” value is on record?
Answer: 1.12

Question: With U7A U8C G9C U10A U11G C13U as the variant, how does the “aptazyme ON/OFF ratio” value read?
Answer: 1.09

Question: With U7A U8C G9C U10A U11G C13A as the variant, how does the “aptazyme ON/OFF ratio” value read?
Answer: 1.1

Question: For U7A U8C G9A U10G U11C C12G, which “aptazyme ON/OFF ratio” value is on record?
Answer: 1.22

Question: Which “aptazyme ON/OFF ratio” value does the source give for U7A U8C G9A U10G U11C C12A here?
Answer: 1.19

Question: With U7A U8C G9A U10G U11C C12U as the variant, how does the “aptazyme ON/OFF ratio” value read?
Answer: 1.06

Question: With U7A U8C G9A U10C C12U as the variant, how does the “aptazyme ON/OFF ratio” value read?
Answer: 1.35

Question: With U7A U8C G9A U10C C12A as the variant, how does the “aptazyme ON/OFF ratio” value read?
Answer: 1.21

Question: Which “aptazyme ON/OFF ratio” value does the source give for U7A U8C G9A U10C C12G here?
Answer: 1.29

Question: With U7A U8C G9A U10C U11C C12A C13G as the variant, how does the “aptazyme ON/OFF ratio” value read?
Answer: 1.09

Question: With U7A U8C G9A U10C U11C C12A C13A as the variant, how does the “aptazyme ON/OFF ratio” value read?
Answer: 1.08

Question: For U7A U8C G9A U10C U11C C12A C13U, which “aptazyme ON/OFF ratio” value is on record?
Answer: 1.04

Question: Which “aptazyme ON/OFF ratio” value does the source give for U7A U8C G9A U11C C12G C13G here?
Answer: 1.07

Question: For U7A U8C G9A U11C C12G C13A, which “aptazyme ON/OFF ratio” value is on record?
Answer: 1.13

Question: With U7A U8C G9A U11C C12G C13U as the variant, how does the “aptazyme ON/OFF ratio” value read?
Answer: 1.16

Question: Which “aptazyme ON/OFF ratio” value does the source give for U7A U8C G9A U10C U11A C12U C13A here?
Answer: 1.12

Question: For U7A U8C G9A U10C U11A C12U C13U, which “aptazyme ON/OFF ratio” value is on record?
Answer: 1.18

Question: With U7A U8C G9A U10C U11A C12U C13G as the variant, how does the “aptazyme ON/OFF ratio” value read?
Answer: 1.15

Question: For U7A U8C G9C U10C U11C C13A, which “aptazyme ON/OFF ratio” value is on record?
Answer: 1.03

Question: Which “aptazyme ON/OFF ratio” value does the source give for U7A U8C G9C U10C U11C C13U here?
Answer: 0.981

Question: For U7A U8C G9C U10C U11C C13G, which “aptazyme ON/OFF ratio” value is on record?
Answer: 1.05

Question: With U7A U8C G9A U11G C12U as the variant, how does the “aptazyme ON/OFF ratio” value read?
Answer: 1.79

Question: Which “aptazyme ON/OFF ratio” value does the source give for U7A U8C G9A U11G C12A here?
Answer: 1.11

Question: Which “aptazyme ON/OFF ratio” value does the source give for U7A U8C G9A U11G C12G here?
Answer: 1.24

Question: Which “aptazyme ON/OFF ratio” value does the source give for U7A U8C G9A U10G U11G C13U here?
Answer: 1.18

Question: For U7A U8C G9A U10G U11G C13A, which “aptazyme ON/OFF ratio” value is on record?
Answer: 1.25

Question: With U7A U8C G9A U10G U11G C13G as the variant, how does the “aptazyme ON/OFF ratio” value read?
Answer: 1.15

Question: Which “aptazyme ON/OFF ratio” value does the source give for U7A U8C G9A U10A U11G C12G C13A here?
Answer: 1.11

Question: Which “aptazyme ON/OFF ratio” value does the source give for U7A U8C G9A U10A U11G C12G C13G here?
Answer: 1.31

Question: For U7A U8C G9A U10A U11G C12G C13U, which “aptazyme ON/OFF ratio” value is on record?
Answer: 1.11
